Patent publication US20210101982A1

Target: PD-L1 on cells (cancer cell lines expressing PD-L1; PD-L1+ aAPC/CHO-K1 cells) (human) (UniProt Q9NZQ7)
Experiment: cell-based or functional assay

Sequence of PD-L1 on cells (cancer cell lines expressing PD-L1; PD-L1+ aAPC/CHO-K1 cells) (human) (Q9NZQ7 19-290): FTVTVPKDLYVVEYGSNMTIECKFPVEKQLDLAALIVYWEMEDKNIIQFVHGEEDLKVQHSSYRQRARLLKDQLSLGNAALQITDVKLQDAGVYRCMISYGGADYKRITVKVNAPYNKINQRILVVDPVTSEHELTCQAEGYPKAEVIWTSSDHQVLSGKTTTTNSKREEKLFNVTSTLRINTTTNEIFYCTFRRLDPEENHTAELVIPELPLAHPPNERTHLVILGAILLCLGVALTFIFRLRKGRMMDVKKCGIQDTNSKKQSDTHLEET

Atezolizumab - MP-PEG8-VKG-Camptothecin (antibody)
> 3000 ng/mL: x50 (50% reduction in viability, CellTiter-Glo, 96 h) on 786-O cells | x50 (50% reduction in viability, CellTiter-Glo, 96 h) on BXPC3 cells | x50 (50% reduction in viability, CellTiter-Glo, 96 h) on KARPAS 299 cells | x50 (50% reduction in viability, CellTiter-Glo, 96 h) on L540CY cells | x50 (50% reduction in viability, CellTiter-Glo, 96 h) on MDA-MB-231 cells

Atezolizumab - vc-MMAE (antibody)
> 3000 ng/mL: x50 (50% reduction in viability, CellTiter-Glo, 96 h) on 786-O cells | x50 (50% reduction in viability, CellTiter-Glo, 96 h) on BXPC3 cells | x50 (50% reduction in viability, CellTiter-Glo, 96 h) on KARPAS 299 cells | x50 (50% reduction in viability, CellTiter-Glo, 96 h) on L540CY cells | x50 (50% reduction in viability, CellTiter-Glo, 96 h) on MDA-MB-231 cells
